We go through eleven molecules from patent publication US20240400677A1 (ELECTRA THERAPEUTICS, published 2024).

Experiment [1] concerns the target T1, human SIRPβ1 on CHO cells (co-transfected with DAP12) (human, UniProt O00241 30-398).
T1 construct: whole, on cells; co-transfected with DAP12; also called Human SIRPβ1 CHO
Briefly: flow cytometry. A general note: Flow cytometry measures light scatter and fluorescence of single cells or particles in a stream.

The target in experiment [2] is T2, cynomolgus monkey SIRPγ on CHO cells (cynomolgus monkey, UniProt Q9P1W8 29-386 (human entry)).
T2 construct: also called Cyno SIRPγ CHO
T2 chain: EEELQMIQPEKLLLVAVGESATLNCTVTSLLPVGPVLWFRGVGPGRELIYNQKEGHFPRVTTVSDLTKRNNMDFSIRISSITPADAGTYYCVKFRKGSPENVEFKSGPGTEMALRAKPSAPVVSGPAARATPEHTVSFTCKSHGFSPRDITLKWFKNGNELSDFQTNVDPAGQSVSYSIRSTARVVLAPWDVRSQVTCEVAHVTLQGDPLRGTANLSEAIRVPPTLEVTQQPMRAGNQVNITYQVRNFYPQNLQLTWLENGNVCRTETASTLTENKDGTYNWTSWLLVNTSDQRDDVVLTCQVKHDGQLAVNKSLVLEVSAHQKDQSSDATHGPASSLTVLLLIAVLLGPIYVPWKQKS
Briefly: flow cytometry, myc-scFv PPE. How it is done:
(§1) Selected antibodies were tested for binding to stably transfected human SIRPγ, SIRPαV1, or SIRPβ1 (co-transfected with DAP12) Chinese hamster ovary (CHO) cells via flow cytometry. A titration of select antibodies was added to the cells and detected using a fluorescently labelled secondary anti-rat IgG antibody or anti-human IgG antibody. Graphs depict the median fluorescence intensity (MFI) at each concentration. FIGS. 5A and 5G show the binding curves of select antibodies to human SIRPγ, cynomolgus monkey SIRPγ, human SIRPα, cynomolgus monkey SIRPα, human SIRPβ1, or cynomolgus monkey SIRPβl-expressing CHO cells detected using an anti-rat IgG antibody. FIGS. 5B-5F and 5H-5L show the binding curves of select antibodies to human SIRPγ, cynomolgus monkey SIRPγ, human SIRPα, cynomolgus monkey SIRPα, human SIRPβ1, or cynomolgus monkey SIRPβ1-expressing CHO cells detected using an anti-human IgG antibody. […] For select antibodies, each myc-tagged SIRPγ scFv antibody as crude PPE was incubated with each of the SIRP-expressing cell lines stated above along with the parental CHO-K1 cell line. […] Fold change value <2.0 is considered a non-binder.

Experiment [3] concerns the target T3, human SIRPγ on stably transfected CHO cells (human, UniProt Q9P1W8 29-387).
T3 construct: also called Human SIRPγ CHO
The experiment can be described thus: flow cytometry, myc-scFv PPE. The method, then:
as §1

The target in experiment [4] is T4, human SIRPγ-His monomer protein (human, UniProt Q9P1W8 29-360).
T4 construct: also called hSIRPγ
The experiment can be described thus: BLI Octet, V5-scFv PPE captured, SIRP-His 500 nM. A general note: Biolayer interferometry detects binding as a change in optical thickness at a sensor tip.

Experiment [5] has as its target T5, cynomolgus monkey SIRPα on CHO cells (cynomolgus monkey, UniProt A0A2K5VYQ9 31-507).
T5 construct: whole, on cells; also called Cyno SIRPα CHO
T5 sequence: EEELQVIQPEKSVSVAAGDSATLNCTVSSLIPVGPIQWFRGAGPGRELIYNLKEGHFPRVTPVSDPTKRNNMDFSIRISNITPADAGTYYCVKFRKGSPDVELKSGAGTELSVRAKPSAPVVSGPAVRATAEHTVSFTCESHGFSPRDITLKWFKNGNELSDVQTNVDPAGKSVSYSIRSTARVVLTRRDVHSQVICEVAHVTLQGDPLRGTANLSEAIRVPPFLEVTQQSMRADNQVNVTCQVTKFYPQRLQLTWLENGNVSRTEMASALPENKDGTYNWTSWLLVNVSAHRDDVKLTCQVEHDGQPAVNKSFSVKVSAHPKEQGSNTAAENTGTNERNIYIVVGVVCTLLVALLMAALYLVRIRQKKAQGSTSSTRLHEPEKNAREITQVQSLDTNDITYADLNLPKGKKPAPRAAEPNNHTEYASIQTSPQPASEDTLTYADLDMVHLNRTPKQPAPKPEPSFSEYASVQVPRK
The experiment can be described thus: flow cytometry.

Some results are limits rather than exact numbers.

T1 sequence (O00241 30-398): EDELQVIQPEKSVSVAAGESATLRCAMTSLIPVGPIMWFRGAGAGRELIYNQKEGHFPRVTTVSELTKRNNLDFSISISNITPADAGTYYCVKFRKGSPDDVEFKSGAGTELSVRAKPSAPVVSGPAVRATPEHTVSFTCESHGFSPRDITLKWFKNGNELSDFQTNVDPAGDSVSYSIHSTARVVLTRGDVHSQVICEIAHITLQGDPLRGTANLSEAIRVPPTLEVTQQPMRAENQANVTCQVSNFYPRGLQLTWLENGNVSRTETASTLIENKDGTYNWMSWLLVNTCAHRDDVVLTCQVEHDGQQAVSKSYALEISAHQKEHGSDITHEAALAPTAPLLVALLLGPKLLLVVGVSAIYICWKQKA
T4 sequence (Q9P1W8 29-360 limits assumed): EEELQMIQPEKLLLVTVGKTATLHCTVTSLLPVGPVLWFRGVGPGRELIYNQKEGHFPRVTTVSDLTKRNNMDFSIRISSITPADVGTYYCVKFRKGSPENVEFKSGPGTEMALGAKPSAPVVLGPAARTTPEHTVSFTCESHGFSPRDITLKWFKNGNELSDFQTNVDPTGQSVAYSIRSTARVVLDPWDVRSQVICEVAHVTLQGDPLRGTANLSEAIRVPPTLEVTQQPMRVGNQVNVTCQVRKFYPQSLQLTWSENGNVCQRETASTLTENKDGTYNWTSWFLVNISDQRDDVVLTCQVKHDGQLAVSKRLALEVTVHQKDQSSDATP
T3 sequence (Q9P1W8 29-387 limits assumed): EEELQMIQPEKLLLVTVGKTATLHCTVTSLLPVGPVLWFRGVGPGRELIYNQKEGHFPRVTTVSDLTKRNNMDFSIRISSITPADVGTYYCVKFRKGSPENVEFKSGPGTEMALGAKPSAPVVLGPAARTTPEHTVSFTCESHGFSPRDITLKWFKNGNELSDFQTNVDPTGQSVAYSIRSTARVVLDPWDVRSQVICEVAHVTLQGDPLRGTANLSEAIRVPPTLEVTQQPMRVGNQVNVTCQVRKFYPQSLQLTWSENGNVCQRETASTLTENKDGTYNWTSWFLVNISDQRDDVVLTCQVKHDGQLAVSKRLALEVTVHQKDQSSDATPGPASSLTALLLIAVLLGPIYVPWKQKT

B1: Antibody 14 (scFv, V domains shown)
VH: QVQLVQSGAEVKKPGASVKVSCKASGYTFTSYYMHWVRQAPGQGLEWMGWVDPNNGDTGYAQKFQGRVTMTRDTSTSTVYMELSSLRSEDTAVYYCARDNWGSLDVWGKGTTVTVSS
VL: DIVMTQSPLSLPVTPGEPASISCRSSQSLLHSNGYNYLDWYLQKPGQSPQLLIYAASTLQSGVPDRFSGSGSGTDFTLKISRVEAEDVGVYYCMQGLQTLYSFGQGTKLEIK
notes: scFv in crude PPE, V5/myc-tagged
In the case of B1, in experiment [1], the binding result is given as “no binding (tested: fold change <2.0)”. Further, the “MFI fold change over parental CHO” value worked out at 18 fold in experiment [2] and 19.6 fold in experiment [3]. Further, the kdis in experiment [4] was in the range of 0.001 to 0.01 s⁻¹.

B2: Antibody 20 (scFv, V domains shown)
VH: QVQLVQSGAEVKKPGASVKVSCKASGYTFTSYDINWVRQAPGQGLEWMGWMNPNSGNTGYAQKFQGRVTMTRDTSTSTVYMELSSLRSEDTAVYYCARESYAYCSSTSCYDAFDIWGQGTMVTVSS
VL: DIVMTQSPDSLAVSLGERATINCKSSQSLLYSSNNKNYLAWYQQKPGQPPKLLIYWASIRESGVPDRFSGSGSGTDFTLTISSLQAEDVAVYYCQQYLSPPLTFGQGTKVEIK
notes: as for B1
Take B2: the binding result in experiment [5] and in experiment [1] was “no binding (tested: fold change <2.0)” in each case. The “MFI fold change over parental CHO” value was 10.5 fold in experiment [2] and 8.87 fold in experiment [3]. The kdis in experiment [4] is less than 0.001 s⁻¹.

B3: Antibody 9 (scFv, V domains shown)
VH: QVQLVQSGAEVKKPGASVKVSCKASGYSFSDYYMHWVRQAPGQGLEWMGWMSPNSGNTGYAQKFQGRVTMTRDTSTSTVYMELSSLRSEDTAVYYCARQREEYGHYYYGMDVWGQGTMVTVSS
VL: EIVMTQSPATLSVSPGERATLSCRASQSLGSTYLAWYQQKPGQAPRLLIYGASTRATGIPARFSGSGSGTEFTLTISSLQSEDFAVYYCQQYYSSPPTFGQGTKVEIK
notes: as for B1
In the case of B3, the binding result in experiment [5] and in experiment [1] was “no binding (tested: fold change <2.0)” in each case. Also, the “MFI fold change over parental CHO” value was 6.87 fold in experiment [2] and 10.4 fold in experiment [3]. In experiment [4], this molecule returned a kdis of 0.001 to 0.01 s⁻¹.

B4: Antibody 29 (scFv, V domains shown)
VH: QVQLVQSGAEVKKPGASVKVSCKASGGTFSSYAISWVRQAPGQGLEWMGIINPSSSSTGYAQKFQGRVTMTRDTSTSTVYMELSSLRSEDTAVYYCARAGYYDSSGYYYSPYYGMDVWGQGTTVTVSS
VL: EIVMTQSPATLSVSPGERATLSCRASQSISGSYLAWYQQKPGQAPRLLIYGASTRATGIPARFSGSGSGTEFTLTISSLQSEDFAVYYCQQYGSFPFTFGPGTKVDIK
notes: as for B1
On to B4, for which the binding result in experiment [5] and in experiment [1] was “no binding (tested: fold change <2.0)” throughout. Besides, the figures for the “MFI fold change over parental CHO” value in experiment [2] and in experiment [3] were 13 fold and 11.4 fold, respectively. The molecule further registered a kdis in experiment [4] of 0.001 to 0.01 s⁻¹.

B5: Antibody 35 (scFv, V domains shown)
VH: QVQLVQSGAEVKKPGASVKVSCKASGYTFTSYYIHWVRQAPGQGLEWMGTINPSGGSTSYAQKFQGRVTMTRDTSTSTVYMELSSLRSEDTAVYYCARETSRWLRDYYYGMDVWGQGTTVTVSS
VL: DIVMTQSPLSLPVTPGEPASISCRSSQSLLHSNGYNYLDWYLQKPGQSPQLLIYDASSLESGVPDRFSGSGSGTDFTLKISRVEAEDVGVYYCMQGTHWPLTFGGGTKVEIK
notes: as for B1
As for B5, in experiment [5], the binding result is on record as “no binding (tested: fold change <2.0)”. Besides, the “MFI fold change over parental CHO” value came out at 12.8 fold in experiment [2] and 18.3 fold in experiment [3]. In experiment [4], this molecule showed a kdis of 0.001 to 0.01 s⁻¹.

B6: Antibody 16 (scFv, V domains shown)
VH: QVQLVQSGAEVKKPGASVKVSCKASGYTFTSYYMHWVRQAPGQGLEWMGWINPNSGNAGFAQKFQGRVTMTRDTSTSTVYMELSSLRSEDTAVYYCARGPVYSYGPFDYWGQGTLVTVSS
VL: DIQMTQSPSSLSASVGDRVTITCRASQGISTYLAWYQQKPGKAPKLLIYAASTLQSGVPSRFSGSGSGTDFTLTISSLQPEDFATYYCQQSHSAPITFGQGTKVEIK
notes: as for B1
B6: the binding result in experiment [5] and in experiment [1] was “no binding (tested: fold change <2.0)” each time. The “MFI fold change over parental CHO” value in experiment [2] was 16.3 fold; in experiment [3], 33 fold.

B7: Antibody 33 (scFv, V domains shown)
VH: QVQLVQSGAEVKKPGASVKVSCKASGYTFTSYYMHWVRQAPGQGLEWMGWMNPNSDNTGYAQKFQGRVTMTRDTSTSTVYMELSSLRSEDTAVYYCARVGVGYGYYYYGMDVWGQGTTVTVSS
VL: DIQMTQSPSSLSASVGDRVTITCRAGQSIGDYLNWYQQKPGKAPKLLIYAASSLQSGVPSRFSGSGSGTDFTLTISSLQPEDFATYYCQQSYSTPWTFGQGTKVEIK
notes: as for B1
On to B7, for which the binding result in experiment [5] and in experiment [1] was “no binding (tested: fold change <2.0)” each time. Also, the “MFI fold change over parental CHO” value in experiment [2] is 8.02 fold; in experiment [3], 20 fold. This molecule also came in with a kdis in experiment [4] of 0.001 to 0.01 s⁻¹.

B8: Antibody 21 (scFv, V domains shown)
VH: EVQLLESGGGLVQPGGSLRLSCAASGFTLGSYWMHWVRQAPGKGLEWVSLISWDGGSTYYADSVKGRFTISRDNSKNTLYLQMNSLRAEDTAVYYCAKGPWVGYSGYDLNYYYYGMDVWGQGTTVTVSS
VL: DIQMTQSPSSLSASVGDRVTITCRASQDIRRALAWYQQKPGKAPKLLIYAASSLQSGVPSRFSGSGSGTDFTLTISSLQPEDFATYYCLQHNSYPPTFGQGTKLEIK
notes: as for B1
Take B8: the binding result in experiment [5] and in experiment [1] was “no binding (tested: fold change <2.0)” in each case. Moreover, the “MFI fold change over parental CHO” value in experiment [2] turned out to be 96.1 fold; in experiment [3], 51.4 fold. Moreover, the kdis in experiment [4] was in the range of 0.001 to 0.01 s⁻¹.

B9: Antibody 32 (scFv, V domains shown)
VH: QVQLVQSGAEVKKPGASVKVSCKASGYTFTSYYMYWVRQAPGQGLEWMGWINPNSGNTGYAQKFQGRVTMTRDTSTSTVYMELSSLRSEDTAVYYCAKDRRRGVGLAAAGTSAFDIWGQGTMVTVSS
VL: DIQMTQSPSSLSASVGDRVTITCRASQSISNWLAWYQQKPGKAPKLLIYAASSLQSGVPSRFSGSGSGTDFTLTISSLQPEDFATYYCQQSYSTPYTFGQGTKLEIK
notes: as for B1
Consider B9, for which the binding result in experiment [5] and in experiment [1] was “no binding (tested: fold change <2.0)” in each case. For the same molecule, the “MFI fold change over parental CHO” value was 9.63 fold in experiment [2] and 10.2 fold in experiment [3]. The molecule also yielded a kdis in experiment [4] of less than 0.001 s⁻¹.

B10: Antibody 27 (scFv, V domains shown)
VH: QVQLVQSGAEVKKPGASVKVSCKASGYTFTSHDINWVRQAPGQGLEWMGWMNANNGNAGYAQKFQGRVTMTRDTSTSTVYMELSSLRSEDTAVYYCAKDLSPSSSWSTYYYYYGMDVWGQGTMVTVSS
VL: DIQMTQSPSSLSASVGDRVTITCRASQSISNLLAWYQQKPGKAPKLLIYAASSLQSGVPSRFSGSGSGTDFTLTISSLQPEDFATYYCQQSYSTPYTFGQGTKLEIK
notes: as for B1
Turning to B10, the binding result in experiment [5] and in experiment [1] was “no binding (tested: fold change <2.0)” throughout. The results for the “MFI fold change over parental CHO” value in experiment [2] and in experiment [3] were 5.81 fold and 23.2 fold, respectively. In experiment [4], this molecule had a kdis of 0.001 to 0.01 s⁻¹.

B11: Antibody 24 (scFv, V domains shown)
VH: QVQLVQSGAEVKKPGASVKVSCKASGYTFTGYYMHWVRQAPGQGLEWMGIINPSGGSTNYAQKFQGRVTMTRDTSTSTVYMELSSLRSEDTAVYYCARGPIGYGMDVWGQGTLVTVSS
VL: DIQMTQSPSSLSASVGDRVTITCRASQGIGNDLGWYQQKPGKAPKLLIYAASNLETGVPSRFSGSGSGTDFTLTISSLQPEDFATYYCLQHHSYPFTFGQGTKLEIK
notes: as for B1
On to B11, for which the binding result in experiment [5] and in experiment [1] was “no binding (tested: fold change <2.0)” throughout. The “MFI fold change over parental CHO” value in experiment [2] is 9.85 fold; in experiment [3], 11.1 fold. This molecule also had a kdis in experiment [4] of more than 0.01 s⁻¹.
